Series [1] has as its target ZIKV NS4A N-terminal peptide (4–58) (Zika virus (strain MR-766)). As to the kind of experiment: static light scattering; Debye plot of KC/Rθ against protein concentration, Zetasizer Nano-ZS, 25 °C; aqueous solution without detergents or liposomes; n = 5 independent samples per concentration.
Series [2] concerns the molecule itself. The experiment in a line: SEC; Superdex 200 Increase 10/300 GL, 20 mM Tris-HCl, 300 mM NaCl, pH 8, with 4 mM n-decyl-β-D-maltoside. (In general: SEC sorts molecules by how far they enter the pores of the column.)

In general, stoichiometry N refers to a count of units in the complex or per binding partner. In the case of “ZIKV NS4A N-terminal peptide (4–58) (domain or fragment)”, the stoichiometry N in series [1] turned out to be 3.

B1: full-length ZIKV NS4A protein (1–127) (natural protein)
chain: GAALGVMEALGTLPGHMTERFQEAIDNLAVLMRAETGSRPYKAAAAQLPETLETIMLLGLLGTVSLGIFFVLMRNKGIGKMGFGMVTLGASAWLMWLSEIEPARIACVLIVVFLLLVVLIPEPEKQR
notes: Zika virus NS4A protein, strain MR-766, full length, residues 1-127 of NS4A; numbers count on: the mature NS4A protein (127 residues); Vector pNIC28-Bsa4; a TEV protease cleavage site stands between the His6 tag and the protein; No cleavage is described; also called full-length NS4A; source: E. coli BL21 (DE3) Rosetta T1R, purified (Ni-charged IMAC and SEC in 4 mM n-decyl-β-D-maltoside)
Consider B1, for which the binding result in series [2] is “binds”.

For the origin of these results see publication PMC8147241, “Trimerization of the N-Terminal Tail of Zika Virus NS4A Protein: A Potential In Vitro Antiviral Screening Assay” (Membranes, 2021).
